Measurements: US20260116937A1

Columns and labels:
C3b (human) [1] = molecular target: C3b (human) (UniProt P01024); test: ELISA
C3b (human) [2] = molecular target: C3b (human) (UniProt P01024); test: ELISA; culture supernatant

Sequence of C3b (human) (P01024 749-1663, chain 1 of 2): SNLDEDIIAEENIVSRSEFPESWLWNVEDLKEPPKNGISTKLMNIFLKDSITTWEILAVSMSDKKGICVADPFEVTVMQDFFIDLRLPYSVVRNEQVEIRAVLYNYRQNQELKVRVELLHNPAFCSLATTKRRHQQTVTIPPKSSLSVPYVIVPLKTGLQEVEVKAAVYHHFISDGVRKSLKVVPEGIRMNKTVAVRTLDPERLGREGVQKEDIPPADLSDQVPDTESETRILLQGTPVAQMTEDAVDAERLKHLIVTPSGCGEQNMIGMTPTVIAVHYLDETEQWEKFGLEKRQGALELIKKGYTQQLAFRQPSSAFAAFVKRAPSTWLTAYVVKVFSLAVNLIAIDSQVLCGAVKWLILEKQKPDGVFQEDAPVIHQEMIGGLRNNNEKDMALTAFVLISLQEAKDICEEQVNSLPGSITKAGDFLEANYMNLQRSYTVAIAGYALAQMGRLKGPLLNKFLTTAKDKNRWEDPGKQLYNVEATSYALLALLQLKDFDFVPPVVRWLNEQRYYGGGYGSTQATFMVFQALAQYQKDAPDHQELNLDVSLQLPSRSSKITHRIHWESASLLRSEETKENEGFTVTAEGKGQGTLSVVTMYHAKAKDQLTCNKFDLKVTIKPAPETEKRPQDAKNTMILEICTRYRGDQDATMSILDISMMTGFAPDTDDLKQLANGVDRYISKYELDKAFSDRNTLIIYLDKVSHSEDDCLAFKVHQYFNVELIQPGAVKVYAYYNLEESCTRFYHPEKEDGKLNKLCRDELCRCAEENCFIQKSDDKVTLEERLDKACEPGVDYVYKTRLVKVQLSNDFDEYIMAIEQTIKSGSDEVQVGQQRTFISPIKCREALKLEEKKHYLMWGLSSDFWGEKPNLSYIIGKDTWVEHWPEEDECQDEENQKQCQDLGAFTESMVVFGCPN
Sequence of C3b (human) (P01024 23-667, chain 2 of 2): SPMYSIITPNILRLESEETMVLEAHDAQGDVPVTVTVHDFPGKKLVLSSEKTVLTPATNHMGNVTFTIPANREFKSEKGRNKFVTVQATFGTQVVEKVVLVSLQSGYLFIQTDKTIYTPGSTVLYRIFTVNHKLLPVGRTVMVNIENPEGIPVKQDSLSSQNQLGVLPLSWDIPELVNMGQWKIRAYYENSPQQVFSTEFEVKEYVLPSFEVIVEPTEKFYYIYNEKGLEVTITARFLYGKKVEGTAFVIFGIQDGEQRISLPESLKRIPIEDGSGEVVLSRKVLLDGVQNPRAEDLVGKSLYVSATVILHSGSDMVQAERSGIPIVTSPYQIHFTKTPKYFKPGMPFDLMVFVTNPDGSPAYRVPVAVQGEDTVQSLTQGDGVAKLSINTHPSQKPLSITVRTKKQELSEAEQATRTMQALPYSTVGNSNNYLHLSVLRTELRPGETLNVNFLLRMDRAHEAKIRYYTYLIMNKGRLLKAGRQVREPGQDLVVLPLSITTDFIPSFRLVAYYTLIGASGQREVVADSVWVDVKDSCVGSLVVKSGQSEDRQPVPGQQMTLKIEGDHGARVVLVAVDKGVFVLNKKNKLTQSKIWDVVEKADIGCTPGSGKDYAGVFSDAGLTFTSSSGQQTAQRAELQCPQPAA

EC50 (C3b (human) [1]): 7.1 nM
EC50 (C3b (human) [2]): 6.9 nM
Substance: Factor H-like protein 1 (FHL-1) (from UniProt P08603 19-445)
